The assay addresses lymphocyte-derived soluble LIGHT (TNFSF 14) (human (endogenous in PBMC)). Put plainly: SEC. In general terms: In gel filtration, larger molecules generally elute earlier.

As usually defined, the stoichiometry N is the number of molecules, sites or subunits per partner or assembly.

For the substance “lymphocyte-derived soluble LIGHT (TNFSF 14) (ligand)”, the stoichiometry N turned out to be 3.

The values are drawn from article PMC3474183.
